Laboratory results: patent publication US8012929B2, “Peptides directed for diagnosis and treatment of amyloid-associated diseases” (Tel Aviv University Future Technology Development L.P., priority 2002, dated 2011)
“Also recorded” adds a separate entry of the source. Blank lines part the entries; values can stand above or below the substance they belong to. Square brackets hold non-standard residues; d marks the D form. Ends that are not written are not given here. Aib = CC(C)(N)C(=O)O

Tests used:
hIAPP1-37 = molecular target: T1, hIAPP1-37 (Homo sapiens, UniProt P10997); assay: Thioflavin T fluorescence assay of hIAPP fibrillization (sodium acetate buffer); format: biochemical; conditions: 4 μM hIAPP1-37, 40 μM inhibitor, 10 mM sodium acetate pH 6.5
T1 construct: purchased CalBiochem (La Jolla Calif., USA)
T1 sequence (P10997 34-70 limits assumed): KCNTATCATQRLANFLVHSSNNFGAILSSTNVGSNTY
Description: Thioflavin T fluorescence assay—hIAPP fibrillization was monitored by Thioflavin T dye binding assay. hIAPP1-37 stock solution was diluted to a final concentration of 4 μM in 10 mM sodium acetate buffer (pH 6.5) with or without inhibitors (40 μM), and a final concentration of HFIP of 1% (vol). Immediately after dilution, sample was centrifuged for 20 minutes in 20,000×g at 4° C. and the supernatant fraction was used for fluorescence measurements. In every measurement ThT was added to a 1 ml sample at a final concentration of 3 μM and measurements were effected by using Perkin-Elmer (excitation 450 nm, 2.5 nm slit; emission 480 nm 10 nm slit). Background was subtracted from all samples.

[1] = Kinetic aggregation assay, turbidity at 405 nm (Example 8); format: physicochemical; conditions: hIAPP 22-29 analogues incubated for 1 week
[2] = FT-IR of Aib-modified IAPP peptide fragments; format: physicochemical; conditions: two week aged peptide solutions
Description: Fourier Transform Infrared Spectroscopy—Infrared spectra were recorded using a Nicolet Nexus 470 FT-IR spectrometer with a DTGS detector. Samples of two week aged peptide solutions, were suspended on a CaF2 plate and dried by vacuum. The peptide deposits were resuspended with D2O and subsequently dried to form thin films. The resuspension procedure was repeated twice to ensure maximal hydrogen to deuterium exchange. The measurements were taken using a 4 cm^−1 resolution and 2000 scans averaging. The transmittance minima values were determined by the OMNIC analysis program (Nicolet).

[3] = Transmission electron microscopy of wild-type and Aib modified hIAPP peptides; format: physicochemical; conditions: 5 mM peptide, aged 4 days (wt) or 10 days (modified)
Description: Peptide solutions—freshly prepared stock solutions were prepared by dissolving the lyophilized form of the peptides in dimethyl sulfoxide (DMSO) at a concentration of 100 mM. To avoid any pre-aggregation, fresh stock solutions were prepared for each experiment. […] Transmission Electron Microscopy—a 10 μL sample of 5 mM peptide solution in 10 mM Tris buffer, pH 7.2 aged for 4 days (for wt peptides) and for 10 days (for modified peptides) was placed on 400-mesh copper grids (SPI supplies, West Chester Pa.) covered by carbon-stabilized Formvar film. After 1 minute, excess fluid was removed, and the grid was then negatively stained with 2% uranyl acetate in water for another 2 minutes. Samples were viewed in a JEOL 1200EX electron microscope operating at 80 kV.

[4] = Congo Red staining and birefringence of wild-type and Aib substituted IAPP peptides; format: physicochemical; conditions: 5 mM peptide aged for 10 days
Description: Congo Red Staining and Birefringence—A 10 μL suspension of 5 mM peptide solution in 10 mM Tris buffer, pH 7.2 aged for 10 days was allowed to dry overnight on a glass microscope slide. Staining was performed by the addition of a 10 μL suspension of saturated Congo Red (CR) and NaCl in 80% ethanol (v/v) solution. The solution was filtered via 0.2 μm filter. The slide was then dried for a few hours. Birefringence was determined with a SZX-12 Stereoscope (Olympus, Hamburg, Germany) equipped with cross polarizers. 100× magnification is shown.

MBP-IAPP1-37 = molecular target: T2, MBP-IAPP1-37 (Homo sapiens, UniProt P10997); assay: Binding of MBP-IAPP to membrane-spotted peptide arrays; conditions: membrane-bound hIAPP decamers, 10 μg/ml MBP-IAPP1-37, densitometry, semiquantitative
T2 construct: incubated in the presence of 10 μg/ml MBP-IAPP1-37 at 4° C. for 12 h; made in house; host or cells: E. coli BL21(DE3)
T2 sequence (P10997 34-70 limits assumed): T1 sequence (P10997 34-70 limits assumed)
Excerpt: IAPP peptide array construction—Decamers corresponding to consecutive overlapping sequences of hIAPP1-37 SEQ ID NOs. 61-88) were synthesizes on a cellulose membrane matrix using the SPOT technique (Jerini AG, Berlin, Germany). The peptides were covalently bound to a Whatman 50 cellulose support (Whatman, Maidstone, England) via the C-terminal amino-acids. N-terminal acetylation was used for peptide scanning because of higher stability to peptide degradation, and better representation of the native recognition motif.
Thereafter, cellulose membrane was incubated in the presence of 10 μg/ml MBP-IAPP1-37 at 4° C. for 12 h in the same blocking buffer. The cellulose membrane was then washed repeatedly with 0.05% Tween 20 in TBS. […] HRP-conjugated goat anti mouse antibodies (Jackson Laboratories, USA) were used as a secondary antibody. Immunoblots were developed using the Renaissance western blot Chemiluminescence Reagent (NEN, USA) according to Manufacturer's instructions and signal was quantified using densitometry. Regeneration of the cellulose membrane for reuse was carried out by sequential washing with Regeneration buffer I including 62.5 mM Tris, 2% SDS, 100 Mm 2-mercaptoethanol, pH 6.7, and Regeneration buffer II including 8 M urea, 1% SDS, 0.1% 2-mercaptoethanol. Efficiency of the washing steps was monitored by contacting the membrane with the chemiluminescence reagent, as described.
To determine the specific role of the phenylalanine residue in IAPP-self assembly, a membrane-based binding assay was preformed in order to systematically explore the molecular determinants that facilitate the ability of the full-length hIAPP to recognize the “basic amyloidogenic unit”. To this end, the ability of MBP-IAPP (see Example 6) to interact with an array of peptides in which the phenylalanine position was systematically altered (SEQ ID NOs. 91-110), was addressed.

[5] = Negative staining electron microscopy of fibril formation (Example 5); format: physicochemical; conditions: 2 mM peptide incubated overnight
Description: Method—Peptide solutions (2 mM peptide in 10 mM Tris buffer pH 7.2), were incubated overnight at room temperature. Fibrils formation was assessed using 10 μl sample placed on 200-mesh copper grids, covered with carbon-stabilized formvar film (SPI Supplies, West Chester Pa.). Following 20-30 seconds of incubation, excess fluid was removed and the grids were negatively stained with 2% uranyl acetate in water. Samples were viewed in a JEOL 1200EX electron microscope operating at 80 kV.

[6] = Congo red binding assay with polarization microscopy (Example 4); format: physicochemical; conditions: peptide solutions incubated for four days
Description: Congo red (CR) staining combined with polarization microscopy was utilized to test amyloidogenicity of the peptides of the present invention. […] Invest. 31:232-8; Lansbury (1992) Biochemistry 31:6865-70]. […] Staining was effected by the addition of 1 mM CR in 10 mM Tris buffer pH 7.2 followed by a 1 minute incubation. To remove excess CR, slides were rinsed with double-distilled water and dried. Saturated CR solutions solubilized in 80% ethanol (v/v) were used for poorly aggregating peptides. In such cases, staining was effected without rinsing. Birefringence was determined using a WILD Makroskop m420 (×70) equipped with a polarizing stage.

[7] = Aggregate mean particle size by dynamic light scattering; format: physicochemical; conditions: 100 μM peptide, 1% DMSO, 10 mM Tris pH 7.2
Description: Therefore, the average size of the aggregates, formed by the various peptides, was determined using dynamic light scattering (DLS) experiments.
Method—Freshly prepared peptide stock solutions at a concentration of 10 mM were diluted in 10 mM Tris buffer pH 7.2 and further filtrated through a 0.2 μm filter to a final concentration of 100 μM peptide and 1% DMSO. Particle size measurement was conducted with a laser-powered ALV-NIBS/HPPS non-invasive backscattering instrument. Autocorrelation data was fitted using the ALV-NIBS/HPPS software to derive average apparent hydrodynamic diameters.

[8] = Kinetic aggregation assay (turbidity at 405 nm) of IAPP peptide fragment and alanine mutants; format: physicochemical; conditions: 2 mM peptide, 10 mM Tris pH 7.2, 2% DMSO, room temperature
Description: To study self-assembly of the IAPP peptide derived fragments, aggregation and insolubilization kinetics were monitored using turbidity measurements at 405 nm.
Kinetic aggregation assay—Fresh peptide stock solutions were prepared by dissolving lyophilized form of the peptides in DMSO, a disaggregating solvent, at a concentration of 100 mM. To avoid any pre-aggregation, fresh stock solutions were prepared prior to each and every experiment. Peptide stock solutions were diluted into assay buffer and plated in 96-well plates as follows: 2 μl of peptides stock solutions were added to 98 μl of 10 mM Tris pH 7.2, resulting in a 2 mM final concentration of the peptide in the presence of 2% DMSO. Turbidity data was measured at 405 nm. A buffer solution including 2% DMSO was used as a blank. Turbidity was measured at room temperature over several time points.

Substance: Gln-Lys-Leu-Val-Phe-Phe [EG05, reference compound]
- inhibition of IAPP fibrillization (ThT fluorescence at plateau) (hIAPP1-37): effective inhibition of IAPP fibrillization

Substance: NVGAILSS
- endpoint turbidity [1]: lower extent

- inhibition of IAPP fibrillization (ThT fluorescence at plateau) (hIAPP1-37): inhibition potential
Substance: D-Pro-Aib [EG28]

Substance: NLGAILSS
- endpoint turbidity [1]: lower extent

Substance: Aib-NF-Aib-VH ([Aib]NF[Aib]VH)
- secondary structure by FT-IR [2]: characteristic to a random coil conformation
- structures by electron microscopy [3]: no fibrillar structures were evident
- Congo Red birefringence [4]: no birefringence

Substance: ANFLV
- secondary structure by FT-IR [2]: typical of β-sheet spectra
- structures by electron microscopy [3]: formed fibrillar structures
- Congo Red birefringence [4]: typical yellow-green birefringence

- binding to MBP-hIAPP1-37 (MBP-IAPP1-37): third binding spot
Substance: hIAPP2-11: membrane-spotted decamer of hIAPP residues 2-11 (CNTATCATQR)

- binding to MBP-hIAPP1-37 (MBP-IAPP1-37): no binding
Substance: hIAPP1-10: membrane-spotted decamer of hIAPP residues 1-10 (KCNTATCATQ)

Substance: NIGAILSS
- endpoint turbidity [1]: some low degree of turbidity

- inhibition of IAPP fibrillization (ThT fluorescence at plateau) (hIAPP1-37): inhibition potential
Substance: D-Phe-D-Pro [EG29]

Substance: ANFLVH
- secondary structure by FT-IR [2]: typical of β-sheet spectra
- structures by electron microscopy [3]: formed fibrillar structures
- Congo Red birefringence [4]: typical yellow-green birefringence

Substance: N1A: alanine-scan mutant of the hIAPP peptide fragment, SEQ ID NO: 2 (AFGAILSS)
- fibril structures by electron microscopy [5]: tangled net-like structures
- Congo red binding and birefringence [6]: bound CR and exhibited the characteristic green/gold birefringence
- apparent hydrodynamic diameter of the structures formed [7]: Smaller structures
- kinetics of aggregation (turbidity at 405 nm) [8]: higher kinetics of aggregation

Substance: NAGAILSS
- endpoint turbidity [1]: lower extent

Substance: Aib-NF-Aib-V ([Aib]NF[Aib]V)
- secondary structure by FT-IR [2]: characteristic to a random coil conformation
- structures by electron microscopy [3]: no fibrillar structures were evident
- Congo Red birefringence [4]: no birefringence

Substance: L6A: leucine to alanine mutant of the hIAPP peptide fragment, SEQ ID NO: 6 (NFGAIASS)
- fibril structures by electron microscopy [5]: lower in comparison to that of wild type; also recorded: More distinct structures and longer fibrils, albeit less frequent
- Congo red binding and birefringence [6]: bound CR and exhibited rare but characteristic birefringence
- apparent hydrodynamic diameter of the structures formed [7]: Smaller structures
- kinetics of aggregation (turbidity at 405 nm) [8]: reduced the kinetics of aggregation but did not abolish it completely

Substance: G3A: alanine-scan mutant of the hIAPP peptide fragment, SEQ ID NO: 4 (NFAAILSS)
- fibril structures by electron microscopy [5]: tangled net-like structures
- Congo red binding and birefringence [6]: bound CR and exhibited the characteristic green/gold birefringence
- apparent hydrodynamic diameter of the structures formed [7]: very similar hydrodynamic diameters
- kinetics of aggregation (turbidity at 405 nm) [8]: essentially the same profile as that of wild type peptide

- binding to MBP-hIAPP1-37 (MBP-IAPP1-37): no binding
Substance: hIAPP3-12: membrane-spotted decamer of hIAPP residues 3-12 (NTATCATQRL)
